Laboratory results from US8906844B2 (SYNTONIX PHARMACEUTICALS, dated 2014).
Read-outs that look alike come from different tables or passages of the source. Starred links: 1 amine or outer side, 2 acyl side, 3 side chain; linkers in the order of their positions; H or OH if unused. Positions of bridges follow the written chain, without caps; N, C: chain ends. Non-standard residues stand in square brackets, D forms with d. No end group written: not given here. X1 = 3(R)‑3‑amino‑2‑oxo‑1‑piperidine‑acetic acid, O=C1[C@H](N[*:1])CCCN1CC(=O)[*:2]; NMeL = CN[C@@H](CC(C)C)C(=O)O; Pen = CC(C)(S)[C@H](N)C(=O)O; NMeA = CN[C@@H](C)C(=O)O; βAla = NCCC(=O)O

B1: Peptide No. 177 (peptide)
peptide: QRFVTGHFGXWYPANGP
modifications: D-Pro10; unbridged; C-terminal amide
B2: Peptide No. 188 (peptide)
peptide: QRFXTGHFXXXYPCNGP
modifications: Pen4; D-Ala9; Sar10; NMeLeu11; disulfide; C-terminal amide
B3: Peptide No. 228 (peptide)
peptide: RF[Pen][NMeA]GHF[X1][NMeL]YPC-NH2
modifications: disulfide 3-12 (inferred)
B4: Peptide No. 31 (peptide)
peptide: QRFXTGHFGGLYPXNGP
modifications: D-Cys4; D-Cys14; disulfide; C-terminal amide
B5: Peptide No. 114 (peptide)
peptide: QRFXTGHFGGLXPCNGP
modifications: Pen4; NMeTyr12; disulfide; C-terminal amide
B6: Peptide No. 29 (peptide)
peptide: QRFXTGHFGGLYPCNGP
modifications: D-Cys4; disulfide; C-terminal amide
B7: Peptide No. 235 (peptide)
peptide: RFXTGHFGXXYPC
modifications: Pen3; Sar9; NMeLeu10; disulfide; C-terminal amide
B8: Peptide No. 265 (peptide)
peptide: RFXTGFFGXXYPC
modifications: Pen3; Sar9; NMeLeu10; disulfide; C-terminal amide
B9: Peptide No. 256 (peptide)
peptide: RFXTGRFGXXYPC
modifications: Pen3; Sar9; NMeLeu10; disulfide; C-terminal amide
B10: Peptide No. 255 (peptide)
peptide: RFXTGKFGXXYPC
modifications: Pen3; Sar9; NMeLeu10; disulfide; C-terminal amide
B11: Peptide No. 236 (peptide)
peptide: RFVTGHFGXXYPA
modifications: Sar9; NMeLeu10; unbridged; C-terminal amide
B12: Peptide No. 24 (peptide)
peptide: QRFCTGHFXXLYPCNGP
modifications: D-Ala9; D-Ala10; disulfide; C-terminal amide
B13: Peptide No. 187 (peptide)
peptide: QRFXTGHFGXXYPCNGP
modifications: Pen4; Sar10; NMeLeu11; disulfide; C-terminal amide

Columns and labels:
[1] = target: T1, soluble human FcRn (shFcRn) (Homo sapiens, UniProt P55899); type: binding; conditions: IgG competition ELISA, 3 nM human IgG, buffer pH 6
T1 construct: made in house; host or cells: Chinese hamster ovary (CHO) cells, glutamine synthetase expression system
Experimental: A solution of soluble human FcRn (shFcRn) in Tris buffer was dialyzed twice, each time for 3 hours in 2 liters of PBS, pH 8.0. The quantity of recovered shFcRn was determined by measuring the absorbance at 280 nm. […] Biotinylation of shFcRn was accomplished by treating the dialyzed shFcRn with a 2-fold-molar excess of Sulfo-NHS-LC-Biotin (Invitrogen, Carlsbad, Calif.) for 2 hours at 4° C. Afterwards, the shFcRn-Sulfo-NHS-LC-Biotin reaction mixture was dialyzed twice in 2 L of cold PBS, followed by another absorbance reading to determine the concentration of the remaining protein. The biotinylated shFcRn was stored at 4° C. with 0.1% sodium azide until needed.
The wells were coated with 100 μl/well of 1 μg/ml biotinylated-shFcRn in Buffer A. The plate was sealed and incubated at 37° C. for 2 hours. Afterwards, the plate was washed with 200 μl/well of Buffer B (Buffer B: 100 mM MES pH 6, 150 mM NaCl, 0.5% BSA IgG-free (Jackson ImmunoResearch, West Grove, Pa.), 0.05% Tween-20). Then, 50 μl/well of 6 nM human IgG (Calbiochem, San Diego, Calif.) in Buffer B as well as 50 μl/well of the various peptide competitors (at various concentration) were added, so that the final concentration of IgG in the well was 3 nM. […] Once color developed, 100 μl/well of TMB stop solution (KPL, Gaithersburg, Md.) was added and the absorbance was measured at 450 nm.

soluble human FcRn = target: T2, soluble human FcRn (Homo sapiens, UniProt P55899); assay: Equilibrium binding constants (KD) by surface plasmon resonance (Biacore); conditions: pH 6
T2 construct: made in house; host or cells: Chinese hamster ovary (CHO) cells, glutamine synthetase expression system
Experimental: (§1) The following steps were performed to cross-link soluble human or cynomolgus FcRn to the dextran surface of a CM5 sensor chip (Biacore AB, Uppsala, Sweden) by an amine coupling reaction involving 1-ethyl-(3-dimethylaminopropyl)-carbodiimide hydrochloride (EDC) (Biacore AB, Uppsala, Sweden) and N-hydroxysuccinimide (NHS) (Biacore AB, Uppsala, Sweden) as recommended by Biacore (BIAapplications Handbook, version AB, section 4.2, Biacore AB, Uppsala, Sweden). The FcRn protein was diluted in 50 mM sodium acetate, pH 4.5 (Biacore AB, Uppsala, Sweden) to a concentration of 10 to 30 μg/ml and used to coat one flow cell on the sensor chip. Residual sites on the FcRn flow cell were blocked with 1 M ethanolamine hydrochloride pH 8.5 (Biacore AB, Uppsala, Sweden). A control flow cell was blocked with ethanolamine for reference subtraction. For analysis of the monomeric peptides, FcRn was coated to a final density of 4000-5000 response units (RU). For analysis of the peptide dimers, FcRn was coated to a density of 2000-2500 RU. […]
(§2) Ten 2-fold dilutions of the peptide were injected over the FcRn-CM5 chip at a rate of 20 μl/min for 2 min. […] Sensorgrams were generated and analyzed using BiaEval software version 3.1 (Biacore AB, Uppsala, Sweden). […]
Sensorgrams were generated and analyzed using BiaEval software version 3.1 (Biacore AB, Uppsala, Sweden). […]

[2] = target: T3, soluble human FcRn (shFcRn) (human, UniProt P55899 24-297; P61769 21-119, biotinylated with Sulfo-NHS-LC-Biotin in the ELISA; amine-coupled to a CM5 chip in SPR); assay: SPR, pH 6
T3 construct: also called biotinylated shFcRn
Experimental: (§3) The following steps were performed to cross-link soluble human or cynomolgus FcRn to the dextran surface of a CM5 sensor chip (Biacore AB, Uppsala, Sweden) by an amine coupling reaction involving 1-ethyl-(3-dimethylaminopropyl)-carbodiimide hydrochloride (EDC) (Biacore AB, Uppsala, Sweden) and N-hydroxysuccinimide (NHS) (Biacore AB, Uppsala, Sweden) as recommended by Biacore (BIAapplications Handbook, version AB, section 4.2, Biacore AB, Uppsala, Sweden). The FcRn protein was diluted in 50 mM sodium acetate, pH 4.5 (Biacore AB, Uppsala, Sweden) to a concentration of 10 to 30 µg/ml and used to coat one flow cell on the sensor chip. Residual sites on the FcRn flow cell were blocked with 1 M ethanolamine hydrochloride pH 8.5 (Biacore AB, Uppsala, Sweden). A control flow cell was blocked with ethanolamine for reference subtraction. For analysis of the monomeric peptides, FcRn was coated to a final density of 4000-5000 response units (RU). For analysis of the peptide dimers, FcRn was coated to a density of 2000-2500 RU. All SPR measurements were performed using a BIACORE 3000 Instrument (Biacore AB Uppsala, Sweden). For measurements done at either pH 6 or pH 7.4, experiments were performed in 50 mM phosphate, 100 mM sodium chloride, 0.01% surfactant P20 (Biacore AB, Uppsala, Sweden).
(§4) A. Representative Procedure for the Determination of Binding Constant of Monomeric Peptides Ten 2-fold dilutions of the peptide were injected over the FcRn-CM5 chip at a rate of 20 µl/min for 2 min. The peptide was dissociated from the chip for 2.5 minutes with buffer. Any remaining peptide was removed from the chip with a 30 second injection of HBS-P buffer (Biacore AB, Uppsala, Sweden) at a rate of 30 µl/min. Sensorgrams were generated and analyzed using BiaEval software version 3.1 (Biacore AB, Uppsala, Sweden). The equilibrium RU observed for each injection was plotted against concentration. The equilibrium K_D values were derived by analysis of the plots using the steady state affinity model included in the BiaEval software.

[3] = target: T3, soluble human FcRn (shFcRn); assay: SPR, pH 7.4
Experimental: as §3, §4

[4] = target: T3, soluble human FcRn (shFcRn); assay: competition ELISA vs human IgG
Experimental: (§5) The wells were coated with 100 μl/well of 1 μg/ml biotinylated-shFcRn in Buffer A. The plate was sealed and incubated at 37° C. for 2 hours. Afterwards, the plate was washed with 200 μl/well of Buffer B (Buffer B: 100 mM MES pH 6, 150 mM NaCl, 0.5% BSA IgG-free (Jackson ImmunoResearch, West Grove, Pa.), 0.05% Tween-20). […] To allow for mixing, the plate was rocked for 2 minutes, sealed and incubated at 37° C. for 2 hours. […] The plate was covered, incubated for 30 minutes at room temperature and washed 4 times with 200 μl/well of ice-cold buffer B. SureBlue TMB substrate solution (100 μl/well, KPL, Gaithersburg, Md.) was added and the plate was allowed to incubate at room temperature until color developed, which took 5 to 10 minutes. Once color developed, 100 μl/well of TMB stop solution (KPL, Gaithersburg, Md.) was added and the absorbance was measured at 450 nm.

[5] = target: T3, soluble human FcRn (shFcRn); assay: SPR, pH 6; remark: listed apart in the source
Experimental: as §3, §4

[6] = target: T3, soluble human FcRn (shFcRn); assay: competition ELISA vs human IgG; remark: listed apart in the source
Experimental: as §5

[7] = target: T3, soluble human FcRn (shFcRn); assay: SPR, pH 6; remark: listed apart in the source
[8] = target: T3, soluble human FcRn (shFcRn); assay: competition ELISA vs human IgG; remark: listed apart in the source
[9] = target: T3, soluble human FcRn (shFcRn); assay: SPR, pH 6; small-letter c (D-cysteine) at both Cys positions
Experimental: as §1, with “µg/ml” for “μg/ml”
as §2, with “A. Representative Procedure for the Determination of Binding Constant of Monomeric Peptides Ten” for “Ten”, “µl/min” for “μl/min”

[10] = target: T3, soluble human FcRn (shFcRn); assay: SPR, pH 6; Tyr replaced by NMeTyr (N-methyl scan)
Experimental: as §1, with “µg/ml” for “μg/ml”
as §2, with “A. Representative Procedure for the Determination of Binding Constant of Monomeric Peptides Ten” for “Ten”, “µl/min” for “μl/min”

[11] = target: T3, soluble human FcRn (shFcRn); assay: SPR, pH 6; small-letter c (D-cysteine) at first Cys position, no Pen
Experimental: as §1, with “µg/ml” for “μg/ml”
as §2, with “A. Representative Procedure for the Determination of Binding Constant of Monomeric Peptides Ten” for “Ten”, “µl/min” for “μl/min”

[12] = target: T3, soluble human FcRn (shFcRn); assay: SPR, pH 7.4; remark: listed apart in the source
Experimental: as §1, with “µg/ml” for “μg/ml”
as §2, with “A. Representative Procedure for the Determination of Binding Constant of Monomeric Peptides Ten” for “Ten”, “µl/min” for “μl/min”

[13] = target: T3, soluble human FcRn (shFcRn); assay: SPR, pH 7.4
[14] = target: T3, soluble human FcRn (shFcRn); assay: competition ELISA vs human IgG; remark: listed apart in the source
Experimental: as §5

T3 sequence (P55899 24-297 limits assumed, chain 1 of 2): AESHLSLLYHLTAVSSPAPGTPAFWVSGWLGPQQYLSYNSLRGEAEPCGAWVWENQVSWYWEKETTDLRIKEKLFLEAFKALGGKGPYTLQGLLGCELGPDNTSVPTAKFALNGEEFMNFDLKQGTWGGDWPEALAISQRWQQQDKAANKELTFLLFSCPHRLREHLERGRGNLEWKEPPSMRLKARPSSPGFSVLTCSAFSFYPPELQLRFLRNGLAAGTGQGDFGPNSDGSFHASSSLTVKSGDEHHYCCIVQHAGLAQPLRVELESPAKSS
T3 sequence (P61769 21-119 limits assumed, chain 2 of 2): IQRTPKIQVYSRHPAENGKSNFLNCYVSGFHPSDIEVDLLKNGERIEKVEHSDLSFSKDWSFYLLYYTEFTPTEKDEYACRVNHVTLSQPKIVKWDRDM
T2 sequence (P55899 24-297): as the sequence (P55899 24-297 limits assumed, chain 1 of 2) above
T2 sequence (P61769 21-119, further chain): as the sequence (P61769 21-119 limits assumed, chain 2 of 2) above
T1 sequence (P61769 21-119): as the sequence (P61769 21-119 limits assumed, chain 2 of 2) above
T1 sequence (P55899 24-297): as the sequence (P55899 24-297 limits assumed, chain 1 of 2) above

| Molecule | Kd [2] [nM] | Kd [3] [µM] | IC50 [4] [µM] | further results |
| --- | --- | --- | --- | --- |
| QRFCGHF[βAla]LYPCNGP (cysteine pairing not given here) [Peptide No. 25] | – | – | – | IC50 [1]: > 125 µM; Kd (soluble human FcRn): > 250 µM |
| B1 | 5800 | 96 | 52 | – |
| B2 | – | – | – | Kd [5]: 730 nM; IC50 [6]: 6500 nM |
| B3 | – | – | – | Kd [7]: 145 nM; IC50 [8]: 1100 nM |
| B4 | – | – | > 500 | Kd [9]: 200 µM |
| B5 | – | – | – | Kd [10]: 92 µM |
| B6 | – | – | – | Kd [11]: 150 µM |
| B7 | 31 | 0.17 | 0.49 | Kd [5]: 31 nM; Kd [12]: 170 nM; IC50 [6]: 490 nM |
| B8 | 3300 | – | – | Kd [13]: 4200 nM |
| B9 | 500 | – | 5.5 | Kd [13]: 500 nM |
| B10 | 1300 | – | 40 | Kd [13]: 1100 nM |
| B11 | – | 9 | 37 | IC50 [14]: 37 µM |
| B12 | 22000 | > 250 | 69 | – |
| B13 | 46 | 0.23 | 0.42 | Kd [5]: 46 nM; Kd [12]: 230 nM; IC50 [6]: 420 nM |
